By IC50 is commonly meant the concentration needed to halve the response being measured. Low readings indicate inhibition by little substance, high ones a need for much substance.

In the assay the target is murine neuropeptide Y Yx receptor (murine). Briefly: displacement of ^125 I-PYY (90 pM) from membranes of COS-7 cells transfected with the murine NPY Yx receptor.
On to Leu^31, Pro^34 !NPY (peptide), for which the IC50 turned out to be 9 nM.
Next, NPY(2-36) (peptide): 16 nM; NPY(13-36) (peptide): 134 nM; Neuropeptide Y: 6 nM.
The substance peptide YY returned an IC50 of 14 nM.

The values above are taken from US5939263.
